Experimental data taken from the nanobody polyreactivity screen of Harvey et al. (2022).

Assay: yeast display, Sf9 membrane polyspecificity reagent, FACS + sequencing; frameworks hold sequencing errors
Outline: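 Nanobodies came from a synthetic yeast display library in Saccharomyces cerevisiae BJ5465, induced with galactose for 36–48 hours and stained for 1 hour at 4 °C with 10% biotinylated, detergent-solubilized Sf9 membrane reagent. Cells were enriched on streptavidin microbeads and then FACS-sorted, with low and high (top ~1%) gates set on anti-HA fluorescence for expression and streptavidin fluorescence for reagent binding. Each polyreactivity label reflects the gate a clone came from. Genes were amplified by colony PCR, sequenced by MiSeq 2 × 250 and filtered by CDR length.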

QVQPVESGGGLDQAGGSLRLSCAASGRILWSYAMGWYRQAPGKERELVAAIRTSGGSTYYADSVKGRFTISRDNAKNTVYLQMNSLKPEDTAVYYCAADRTLFSTVDYWGQGTQVTVSS
polyreactivity (PSR sort gate): low polyreactivity

QVQLEESGGGLVQAGGSLRLSCAASGFIFDYYMGWYIQAPGKERELVARISYTGGSTYYADCVKGRFTISRDNAKNTVYLQMNSLKPEDTAVYYCATRGAEAERFASYDFDYWGQGTQVTVSS
polyreactivity (PSR sort gate): low polyreactivity

QVLLQESGGGLVQAGGSLRLSCAASGNIFTAGGMGWYRQAPVNERELVAGIGTGTSTNYADRVKGRFTISRDNAKNTVYLQMNSLKPEDTAVYYCAPAYYSGLSHWYWGQGTQVTVSS
polyreactivity (PSR sort gate): low polyreactivity

QVQLVESVGGIVQAGGSLRLSCAASGSTRYNAMGWYIQAPGKERELVAYIRGNAGSTYYADSVKGRFTISRDNAKNTVYLQMNSLKPEDTAVYYCNARYWYRYGGYKPVGGYYWGQGTQVTVSS
polyreactivity (PSR sort gate): high polyreactivity

QVQLVESGGGLVQAGGSLRLSCAASGRTFYRNAMGWYRQAPGKERELVAAISSGGSTTYADSVKGRFTISRDNAKNTVYLQMNSLKPEDTAVYYCAARSHAGSVSPRLKEYDYWGQGTQVTVSS
polyreactivity (PSR sort gate): low polyreactivity

QVQLVESGGGLVQAGGSLRLSCAASGSTFVRNAMGWYRQAPGKERELVAGITFGGGSTYYADSVKGRFTISRDIAKNTVYLQMNSLKPEDTAVYYCAADLSYRGATRGDYYWGQGTQVTVSS
polyreactivity (PSR sort gate): low polyreactivity

QVQLVESGGGLVQAGGSLRLSCAASGNIFTNNAMGWYRQAPGKEREFVAAITRSGGSTSYADSVKGRFTISRDNAKNTVYLQMISLNPEDTAVYYCAATGYRYRRIYGFDYWGQGTQVTVSS
polyreactivity (PSR sort gate): high polyreactivity

QVQLVESGGGLVQAGGSLRLSCAATGRIVTSNAMGWYRQAPGKERELVAVISRRGGSTYYADSVKGRFTISRDNAKNTVYLQMNRLKPEETAVYYCARRPYSYTRYEYWGQGTQVTVSS
polyreactivity (PSR sort gate): low polyreactivity

QVQLVESGGGLVQAGGSLRLRCAASGFNFSFDNAMGWYRQAPGKERELVAAISSGTTTHYADSVKGRFTISRDNAKNTVYLQMNSLKPEDTAVYYCAADTAQQSGYEYDYWGQGTQVTVSS
polyreactivity (PSR sort gate): low polyreactivity

QVQLVESGGGLVQAGGSLRLSCAASGSTFEYYAMGWYRQAPGKERELLATISIDGRTNYADSVKGRFTISRDNAKNTVYLQLYSVKPEDTAVYYCGARPYWRHRYDYWGQGTQVTVSS
polyreactivity (PSR sort gate): low polyreactivity

QVQLVESGGGLVQAGGTLRLSCAASGSISIRNAMGWYRQAPGKERELVAAITYSGGSTYYADSVKGRFTISRDNAKNTVYLQMNSLKPEDTAVYYCAKDHYRFRYDYWGQGTQVTVSS
polyreactivity (PSR sort gate): low polyreactivity

QVQLVESGGGLVQAGGSLRLSCAASGSTFSANTMGWYRQAPGKERELVAAISSSGVGTRYADSVKGRFTISRDNAKNTVYLQMNSLKPEDTAVYYCNADLYGGGDKSVISGLNGEYEYWGQGTQVTVSS
polyreactivity (PSR sort gate): low polyreactivity

QVQLVESGGGLVQAGGSLRLSCAPSGIIFYYYAMGWYRQAPGKERELVAAITGTGSRTYYADSVKGRFTISRDNAKNTVYLQMNSLKPEDTAVYYCNARSFATGSKVPARGYWGQGTQVTVSS
polyreactivity (PSR sort gate): high polyreactivity

QVQLVESGGGLVQAGGSLRLSCAASGFIIVKYAMGWYRQAPGKERELVAAITRGGRTYYADSVKGRFTISRDNAKNTVYLQMNSLKPEDTAVYYCNKARFYDPWLGKYGYKYDYWGQGTQVTVSS
polyreactivity (PSR sort gate): high polyreactivity

QVQLVESGGGLVQAGGSHRLSCAASGRTFRYYTMGWYRQAPGKEREFVAAISSTGGTYYADSVKGRFTISRDNAKNTVYLQMNSLKPEDTAVYYCAKVYFWGALSPDKYDEDYWGQGTQVTVSS
polyreactivity (PSR sort gate): low polyreactivity

QVQLVESGGGLVQAGGSLRLSCAASGFTFFRNAMGWYRQAPGKERELVAAISGSGGSTYYADSVKGRFTISRDNATNTVYLQMNSLIPVDTAVYYCATYSYPAKVREAYNYWGQGTQVTVSS
polyreactivity (PSR sort gate): low polyreactivity

QVQLVESGGGLVQAGGSLRLSCAASGRIFRYYAMGWSRQAPGKERELVADISRRGGSTYYADSVKGRFTISRDNAKNTVYLQMNSLKPEDTAVYYCNARWYRTGSTYHEDYWGQGTQVTLSS
polyreactivity (PSR sort gate): high polyreactivity
